Source: the supplement of paper PMC10567573

B1: ZNF8 (parent)
chain: SLGRHKRTHTGEKPYTCSVCGKSF

Variants of: B1
Assay: protein stability index of a GFP-peptide fusion (GPS, HEK-293T) (PSI 1-6); higher = more stable
Conditions: c terminus: a fixed tail appended
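Further: lentivirally expressed fusions sorted by FACS into six bins by GFP to DsRed ratio, PSI derived from sequencing read proportions per bin multiplied by bin number.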

Point of comparison: SLGRHKRTHTGEKNYTCSVCGKSF [P14N], protein stability index 3.21. Against it:
- SLGRHKRTHTGEKPYTCSSCGKSF [V19S] — lower, 3.04
- SLGRHKRTHTGEKPYTCSMCGKSF [V19M] — lower, 2.7
- SLGRHKRTHTGEKPYTCSECGKSF [V19E] — lower, 2.42
- SLGRHKRTHTGEKPYTCSVAGKSF [C20A] — lower, 3.05
- SLGRHKRTHTGEKPYTCSVDGKSF [C20D] — higher, 3.99
- SLGRHKRTHTGEKPYTCSVIGKSF [C20I] — lower, 2.94
- SLGRHKRTHTGEKPYTCSVQGKSF [C20Q] — higher, 3.42
- SLGRHKRTHTGEKPYTCSVNGKSF [C20N] — higher, 3.51
- SLGRHKRTHTGEKPYTCSVVGKSF [C20V] — lower, 3.13
- SLGRHKRTHTGEKPYTCSVTGKSF [C20T] — higher, 3.44
- SLGRHKRTHTGEKPYTCSVSGKSF [C20S] — higher, 4
- SLGRHKRTHTGEKPYTCSVPGKSF [C20P] — higher, 3.36
- SLGRHKRTHTGEKPYTCSVEGKSF [C20E] — higher, 3.78
- SLGRHKRTHTGEKPYTCSVMGKSF [C20M] — higher, 3.36
- SLGRHKRTHTGEKPYTCSVLGKSF [C20L] — lower, 2.45
- SLGRHKRTHTGEKPYTCSVWGKSF [C20W] — lower, 2.4
- SLGRHKRTHTGEKPYTCSVRGKSF [C20R] — lower, 2.98
- SLGRHKRTHTGEKPYTCSVYGKSF [C20Y] — lower, 2.94
- SLGRHKRTHTGEKPYTCSVHGKSF [C20H] — lower, 2.79
- SLGRHKRTHTGEKPYTCSVGGKSF [C20G] — lower, 3.18
- SLGRHKRTHTGEKPYTCSVFGKSF [C20F] — lower, 2.47
- SLGRHKRTHTGEKPYTCSVKGKSF [C20K] — higher, 3.23
- SLGRHKRTHTGEKPYTCSVCGRSF [K22R] — lower, 3.09
- SLGRHKRTHTGEKPYTCSVCGTSF [K22T] — higher, 3.37
- SLGRHKRTHTGEKPYTCSVCGVSF [K22V] — lower, 2.48
- SLGRHKRTHTGEKPYTCSVCGSSF [K22S] — lower, 2.34
- SLGRHKRTHTGEKPYTCSVCGISF [K22I] — lower, 2.05
- SLGRHKRTHTGEKPYTCSVCGGSF [K22G] — lower, 2.19
- SLGRHKRTHTGEKPYTCSVCGESF [K22E] — higher, 3.66
- SLGRHKRTHTGEKPYTCSVCGASF [K22A] — lower, 2.82
- SLGRHKRTHTGEKPYTCSVCGPSF [K22P] — higher, 3.29
- SLGRHKRTHTGEKPYTCSVCGQSF [K22Q] — lower, 2.47
- SLGRHKRTHTGEKPYTCSVCGCSF [K22C] — lower, 2.54
- SLGRHKRTHTGEKPYTCSVCGYSF [K22Y] — higher, 3.41
- SLGRHKRTHTGEKPYTCSVCGFSF [K22F] — lower, 2.54
- SLGRHKRTHTGEKPYTCSVCGLSF [K22L] — lower, 2.36
- SLGRHKRTHTGEKPYTCSVCGDSF [K22D] — lower, 3.01
- SLGRHKRTHTGEKPYTCSVCGMSF [K22M] — lower, 2.07
- SLGRHKRTHTGEKPYTCSVCGHSF [K22H] — lower, 3.12
- SLGRHKRTHTGEKPYTCSVCGNSF [K22N] — lower, 2.87
- SLGRHKRTHTGEKPYTCSVCGKHF [S23H] — lower, 3.12
- SLGRHKRTHTGEKPYTCSVCGKLF [S23L] — lower, 2.69
- SLGRHKRTHTGEKPYTCSVCGKAF [S23A] — lower, 2.5
- SLGRHKRTHTGEKPYTCSVCGKQF [S23Q] — lower, 2.25
- SLGRHKRTHTGEKPYTCSVCGKNF [S23N] — lower, 2.9
- SLGRHKRTHTGEKPYTCSVCGKIF [S23I] — lower, 2.8
- SLGRHKRTHTGEKPYTCSVCGKTF [S23T] — higher, 3.32
- SLGRHKRTHTGEKPYTCSVCGKYF [S23Y] — lower, 2.79
- SLGRHKRTHTGEKPYTCSVCGKDF [S23D] — higher, 3.3
- SLGRHKRTHTGEKPYTCSVCGKPF [S23P] — lower, 2.39
- SLGRHKRTHTGEKPYTCSVCGKFF [S23F] — lower, 2.38
- SLGRHKRTHTGEKPYTCSVCGKCF [S23C] — lower, 2.48
- SLGRHKRTHTGEKPYTCSVCGKWF [S23W] — lower, 2.12
- SLGRHKRTHTGEKPYTCSVCGKMF [S23M] — lower, 2.18
- SLGRHKRTHTGEKPYTCSVCGKKF [S23K] — higher, 3.3
- SLGRHKRTHTGEKPYTCSVCGKGF [S23G] — lower, 2.94
- SLGRHKRTHTGEKPYTCSVCGKRF [S23R] — lower, 3.2
- SLGRHKRTHTGEKPYTCSVCGKEF [S23E] — lower, 3.03
- SLGRHKRTHTGEKPYTCSVCGKVF [S23V] — lower, 1.95
- SLGRHKRTHTGEKIYTCSVCGKSF [P14I] — higher, 3.47
- SLGRHKRTHTGEKEYTCSVCGKSF [P14E] — lower, 2.8
- SLGRHKRTHTGEKMYTCSVCGKSF [P14M] — lower, 2.72
- SLGRHKRTHTGEKSYTCSVCGKSF [P14S] — higher, 3.3
- SLGRHKRTHTGEKTYTCSVCGKSF [P14T] — higher, 3.77
- SLGRHKRTHTGEKYYTCSVCGKSF [P14Y] — lower, 3
- SLGRHKRTHTGEKHYTCSVCGKSF [P14H] — lower, 2.89
- SLGRHKRTHTGEKLYTCSVCGKSF [P14L] — higher, 3.73
- SLGRHKRTHTGEKGYTCSVCGKSF [P14G] — lower, 2.44
- SLGRHKRTHTGEKFYTCSVCGKSF [P14F] — lower, 3.14
- SLGRHKRTHTGEKQYTCSVCGKSF [P14Q] — lower, 3
- SLGRHKRTHTGEKKYTCSVCGKSF [P14K] — lower, 2.83
- SLGRHKRTHTGEKVYTCSVCGKSF [P14V] — lower, 3.18
- SLGRHKRTHTGEKWYTCSVCGKSF [P14W] — higher, 3.82
- SLGRHKRTHTGEKRYTCSVCGKSF [P14R] — lower, 2.63
- SLGRHKRTHTGEKPETCSVCGKSF [Y15E] — lower, 2.89
- SLGRHKRTHTGEKPHTCSVCGKSF [Y15H] — lower, 2.34
- SLGRHKRTHTGEKPTTCSVCGKSF [Y15T] — lower, 2.3
- SLGRHKRTHTGEKPLTCSVCGKSF [Y15L] — lower, 2.44
- SLGRHKRTHTGEKPQTCSVCGKSF [Y15Q] — lower, 2.33
- SLGRHKRTHTGEKPPTCSVCGKSF [Y15P] — lower, 2.29
- SLGRHKRTHTGEKPVTCSVCGKSF [Y15V] — lower, 2.44
- SLGRHKRTHTGEKPWTCSVCGKSF [Y15W] — lower, 2.63
- SLGRHKRTHTGEKPMTCSVCGKSF [Y15M] — lower, 2.52
- SLGRHKRTHTGEKPSTCSVCGKSF [Y15S] — lower, 2.9
- SLGRHKRTHTGEKPITCSVCGKSF [Y15I] — lower, 2.59
- SLGRHKRTHTGEKPFTCSVCGKSF [Y15F] — lower, 2.36
- SLGRHKRTHTGEKPNTCSVCGKSF [Y15N] — lower, 2.33
- SLGRHKRTHTGEKPKTCSVCGKSF [Y15K] — lower, 2.72
- SLGRHKRTHTGEKPCTCSVCGKSF [Y15C] — higher, 3.79
- SLGRHKRTHTGEKPRTCSVCGKSF [Y15R] — lower, 2.61
- SLGRHKRTHTGEKPDTCSVCGKSF [Y15D] — lower, 2.46
- SLGRHKRTHTGEKPGTCSVCGKSF [Y15G] — lower, 2.45
- SLGRHKRTHTGEKPATCSVCGKSF [Y15A] — lower, 2.58
